In test [1] the target is T1, GST-hERα(DEF) (pGEX2T-hERα(DEF), amino acids 282-595) (human, UniProt P03372 282-595).
T1 construct: range 282-595; Bacterially produced; also used 32P-labelled as Far-Western probe; also called GST-ER; GST-ER(DEF); not shown: glutathione-S-transferase (GST) of pGEX2T (Pharmacia)
T1 sequence (looked up): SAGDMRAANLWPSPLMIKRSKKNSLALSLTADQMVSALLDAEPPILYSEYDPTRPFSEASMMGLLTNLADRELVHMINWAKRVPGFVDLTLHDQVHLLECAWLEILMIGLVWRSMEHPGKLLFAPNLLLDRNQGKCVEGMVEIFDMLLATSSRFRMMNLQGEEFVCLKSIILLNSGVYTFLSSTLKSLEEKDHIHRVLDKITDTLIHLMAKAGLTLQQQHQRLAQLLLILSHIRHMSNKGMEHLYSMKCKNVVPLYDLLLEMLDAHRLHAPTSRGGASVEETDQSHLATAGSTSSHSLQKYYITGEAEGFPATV
Briefly: GST pull-down with 35S in-vitro-translated TIF2 polypeptides, with or without 10^-6 M estradiol.

Test [2] has as its system CBP (residues 1872 to 2165). Briefly: GST-CBP pull-down of TIF2 polypeptides. It counts as binding. As to the method: (d) Mapping of the CBP-interacting domain of TIF2. GST puld own experiments were performed with ^35S-labeled in-vitro-translated TIF2 polypeptides and bacterially produced GST and GST-CBP (expressing CBP residues 1872 to 2165).
(c) Interaction of TIF2 AF-1 mutants with CBP in vitro. GST pull-down experiments were performed with ^35S-labeled in-vitro-translated GAL-TIF2 fusion proteins and bacterially produced GST and GST-CBP.
(c) Interaction of TIF2.13 wildtype and TIF2.13 mutants with CBP in vitro. GST pull-down experiments were performed with ^35S-labeled in-vitro-translated VP16-TIF2.13 polypeptides and bacterially produced GST and GST-CBP.
Furthermore, it was reported that SRC-1, which belongs to the same gene family as TIF2, interacts with CBP and p300 (Kamei, Y. et al., Cell 85:403-414 (1996); Yao, T. P. et al., Proc. Natl. Acad. Sci. USA 93:10626-10631 (1996); Hanstein, B., et al., Proc. Natl. Acad Sci USA 93:11540-11545 (1996)). Using GST-fusion protein-based interaction and animal cell-based two hybrid assays, we therefore analyzed whether TIF2 could also interact with CBP. […] A GST-CBP fusion protein was expressed in E. coli and used for puU-down assays with in vitro translated TIF2 polypeptides (FIG. 7d).

The target of test [3] is T2, GST-hRARα(DEF) (pGEX2T-hRARα(DEF), amino acids 153-462) (human, UniProt P10276 153-462).
T2 construct: range 153-462; Bacterially produced; also called GST-RAR; GST-RARα(DEF); not shown: glutathione-S-transferase (GST) of pGEX2T (Pharmacia)
T2 sequence (looked up): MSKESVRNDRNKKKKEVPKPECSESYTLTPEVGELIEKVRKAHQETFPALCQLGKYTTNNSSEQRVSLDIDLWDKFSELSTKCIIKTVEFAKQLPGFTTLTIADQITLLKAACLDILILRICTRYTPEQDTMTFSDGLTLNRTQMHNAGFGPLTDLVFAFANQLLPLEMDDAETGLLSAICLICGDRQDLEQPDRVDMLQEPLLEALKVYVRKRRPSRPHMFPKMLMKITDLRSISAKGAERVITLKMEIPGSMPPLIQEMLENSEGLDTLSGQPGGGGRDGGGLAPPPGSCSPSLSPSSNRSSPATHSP
Briefly: GST pull-down with 35S in-vitro-translated TIF2 polypeptides, with or without 10^-6 M all-trans-retinoic acid.

The subject of a further test is GAL4 reporter. Briefly: GAL4 DBD-TIF2 fusion CAT reporter transactivation assay. The class given is cell-based. The note with it: Cos-1 and/or HeLa cells. A digest of the protocol:
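Transiently transfected HeLa and Cos-1 cells received plasmids (3 μg; 1-10 μg in titration) expressing TIF2 regions or mutants fused to GAL4 DBD(1-147), plus 1 μg (17m)5-G-CAT reporter. CAT activity measured by TLC phosphoimaging or CAT ELISA, normalized to cotransfected β-galactosidase, expressed as fold over GAL4 DBD alone; mean of ≥3 experiments.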

B1: TIF2.2 (TIF2 amino acids 1288-1464) (other)
chain: NPRIPQANAQQFPFPPNYGISQQPDPGFTGATTPQSPLMSPRMAHTQSPMMQQSQANPAYQAPSDINGWAQGNMGGNSMFSQQSPPHFGQQANTSMYSNNMNINVSMATNTGGMSSMNQMTGQISMTSVTSVSTSGLSSMGPEQVNDPALRGGNLFPNQLPGMDMIKQEGDTTRKYC
notes: In-vitro-translated; also called AD2
Take B1: the binding result in test [1] and in test [3] was “no binding” throughout. Moreover, the “binding to GST-CBP in vitro” value in test [2] is on record as “did not show any binding”. In addition, the “transcriptional activation of GAL4 reporter by GAL4 DBD fusion” value with GAL4 reporter is listed as “able to activate transcription”.
